Results from article PMC11746035 (Frontiers in Immunology, 2024).

B1: BD56-1290 (antibody, V domains shown)
VH: QITLKESGPTLVKPTQTLTLTCTFSGFSLSTSGVGVGWIRQPPGKALEWLALIYWDDDSRYSPSLKTRLTITKDTSKNQVVLTLTNMDPVDTATYYCGHFTIDMIVGYWGQGTLVTVSS
VL: QSALTQPASVSGSPGQSITISCTATSIDVGAFHYVSWYQHHPGKAPKLIIFDVTNRPSGVSNRFSGSKSGNTASLTISGLQAEDEADYYCSSYTDSTVVFGGGTKLTVL
notes: heavy chain of BD56-1290 (IGHV2-5*02, D56), not modified; light chain of BD56-1290; IgG1; source: Expi 293, transfected, purified (protein A)
B2: LY-CoV1404 (antibody, V domains shown)
VH: QITLKESGPTLVKPTQTLTLTCTFSGFSLSISGVGVGWLRQPPGKALEWLALIYWDDDKRYSPSLKSRLTISKDTSKNQVVLKMTNIDPVDTATYYCAHHSISTIFDHWGQGTLVTVSS
VL: QSALTQPASVSGSPGQSITISCTATSSDVGDYNYVSWYQQHPGKAPKLMIFEVSDRPSGISNRFSGSKSGNTASLTISGLQAEDEADYYCSSYTTSSAVFGGGTKLTVL
notes: heavy chain of LY-CoV1404 (IGHV2-5*02, D56), not modified; variable region in PDB 7MMO; light chain of LY-CoV1404; IgG1; source: Expi 293, transfected, purified (protein A)
B3: BD56-595 (antibody, V domains shown)
VH: QITLKESGPTLVKPTQTLTLTCTFSGFSITTAGVGVGWIRQPPGKALEWLALIYWDGDRRYSPSLKNRVDITTDISKNQVVLTMTNMAPVDTATYYCAQHTIDMILDYWGQGTLVTVSS
VL: QSALTQPPSASGSPGQSVTISCTATSSDVGAYNYVSWYQQHPGKAPKLMIYEVNKRPSGVPDRFSGSKSGNTASLTVSGLQAEDEADYYCSSYTDNIVFGTGTRVTVL
notes: heavy chain of BD56-595 (IGHV2-5*02, D56), not modified; light chain of BD56-595; IgG1; source: Expi 293, transfected, purified (protein A)
B4: XGv-265 (antibody, V domains shown)
VH: QITLKESGPTLVKPTQTLTLTCNFSGFSLNTYGVGVGWIRQPPGKALEWLALIYWDGDERYGPFFKNKVTIAKDTSKNQVVLTMTNMDPVDTATYYCARHLIPTIFDYWGQGTLVTVSS
VL: QSALTQPASVSGSPGQSITISCTGTSSDVGGSNYVSWYQHHPDRAPKLLIYEVTNRPSGVSNRFSGSKSANTASLTISGLQAEDEADYYCSSYTTTSTHILFGGGTKLTV
notes: heavy chain of XGv-265 (IGHV2-5*02, D56), not modified; light chain of XGv-265; IgG1; source: Expi 293, transfected, purified (protein A)
B5: BD57-028 (antibody, V domains shown)
VH: QITLKESGPTLVKPTQTLTLTCTFSGFSLSASGEGMGWIRQPPGKALEWLALIYWDADERYSPSLRSRLTITKDTSKNQVVLKMTNMNPVDTATYYCAHHSITTVVDYWGQGMLVTVSS
VL: QSALTQPASVSGSPGQSITISCTGTISDVGAFNYVSWYQQHPGRAPKLIIYDVSTRPSGISIRFSGSKSGNTASLTISGLQPEDEADYYCSSYSHTSLVFGTGTKVTVL
notes: heavy chain of BD57-028 (IGHV2-5*02, D56), not modified; light chain of BD57-028; IgG1; source: Expi 293, transfected, purified (protein A)

target: T1, SARS-CoV-2 WT RBD (SARS-CoV-2, WT (ancestral) strain, UniProt P0DTC2); test: BLI; antibody (IgG1, 11 μg/mL) loaded on AHC2 biosensor to about 1.5 nm; RBD in solution, association 300 s, dissociation 600 s; PBS-TB (PBS, 0.02% v/v Tween-20, 0.1% w/v BSA); 25°C; 1,000 rpm; binding response less than 0.1 considered non-binding; conditions: both partners purified
T1 construct: also called wild-type L452 RBD

Binder	binding result
B1	binds
B2	binds
B3	binds
B4	binds
B5	binds
